The text below walks through data of paper PMC9913602.

Assay [1] addresses HCV NS3/NS4A protease complex (NS3 protease domain residues 1-182 preincubated with synthetic NS4A cofactor peptide) (hepatitis C virus). Nature of the assay: single-turnover cleavage kinetics (Western blot of remaining substrate); 0.1 μM IKKε with 5 μM NS3 + 244 μM NS4A peptide, 23 °C, digestion buffer (50 mM HEPES pH 7.8, 0.5 mM EDTA, 25% glycerol, 10 mM DTT, 0.25 M KCl, 0.05 M NaCl, 0.2% CHAPS); Kd estimated by Equation (2) from the constant c of the single-exponential fit, assumed to be unbound kinase.

Assay [2] has the same target. Nature of the assay: single-turnover cleavage kinetics (Western blot of remaining substrate); 0.5 μM IKKε with 5 μM NS3 + 244 μM NS4A peptide, 23 °C, digestion buffer (50 mM HEPES pH 7.8, 0.5 mM EDTA, 25% glycerol, 10 mM DTT, 0.25 M KCl, 0.05 M NaCl, 0.2% CHAPS); Kd estimated by Equation (2) from the constant c of the single-exponential fit, assumed to be unbound kinase.

Regarding “Recombinant human IKKε (Inhibitor of κB kinase ε) (from UniProt Q14164 1-716) (enzyme)”, the Kd is 4.57 µM in assay [1] and 1680 nM in assay [2].
